± gives the uncertainty stated by the source.
Experiment: self-splicing fitness, log relative to wild type (ln ratio); higher = more splicing; Tetrahymena group I intron in knt gene, E. coli kanamycin selection, DiMSum; sequences stand for … in CUCUCU…GGAGGGAAAAGUUAUCAGGCAUGCACCUGGUAGCUAGUCUUUAAACCAAUAGAUUGCAUCGGUUUAAAAGGCAAGACCGUCAAAUUGCGGGAAAGGGGUCAACAGCCGUUCAGUACCAAGUCUCAGGGGAAACUUUGAGAUGGCCUUGCAAAGGGUAUGGUAAUAAGCUGACGGACAUGGUCCUAACCACGCAGCCAAGUCCUAAGUCAACAGAUCUUCUGUUGAUAUGGAUGCAGUUCACAGACUAAAUGUCGGUCGGGGAAGAUGUAUUCUUCUCAUAAGAUAUAGUCGGACCUCUCCUUAAUGGGAGCUAGCGGAUGAAGUGAUGCAACACUGGAGCCGCUGGGAACUAAUUUGUAUGCGAAAGUAUAUUGAUUAGUUUUGGAGUACUCGUGGUCG
In short: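 Six replicate transformations of E. coli BL21(DE3) with a pET-22b(+) library were grown overnight at 37°C or 30°C. The library randomised all eight P1ex-region intron nucleotides, the intron lying in the knt kanamycin-resistance gene, and plates were LB agar with or without 25 μg/mL kanamycin plus 100 μg/mL carbenicillin, 50 μM IPTG and 0.2% rhamnose. Pooled colonies were amplicon-sequenced on an Illumina HiSeq 2500, and fitness is the DiMSum error-weighted combination of wild-type-normalised replicate fold changes, kanamycin versus none.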

Sequence	self-splicing fitness (ln) (30 °C)	self-splicing fitness (ln) (37 °C)
GUUCAGCAAUAUUACGUAUU	-0.531 ± 0.057	-0.576 ± 0.074
GACAAGCAAUAUUACGGGAA	-2.12 ± 0.097	-1.36 ± 0.12
CACGAGCAAUAUUACGAAAG	-3.34 ± 0.3	-2.22 ± 0.36
GCCGAGCAAUAUUACGAAAG	-2.81 ± 0.33	–
GCAAAGCAAUAUUACGAAAA	-1.98 ± 0.2	-1.84 ± 0.24
ACGAAGCAAUAUUACGGUAG	-2.36 ± 0.15	-2.22 ± 0.22
ACCCAGCAAUAUUACGAGAC	-2.34 ± 0.17	-1.89 ± 0.18
UACAAGCAAUAUUACGCUAC	-3.76 ± 0.29	-2.26 ± 0.21
CAUCAGCAAUAUUACGGGGU	-4.39 ± 0.25	-2.11 ± 0.25
UGAUAGCAAUAUUACGGGAU	-2.03 ± 0.17	-2.15 ± 0.26
CGGUAGCAAUAUUACGGCCA	0.0804 ± 0.18	-0.151 ± 0.24
AUGUAGCAAUAUUACGGCGC	-0.704 ± 0.094	-0.408 ± 0.12
GGAGAGCAAUAUUACGGUUC	-1.36 ± 0.38	–
UGCAAGCAAUAUUACGUCUG	-1.34 ± 0.08	-0.432 ± 0.1
ACUUAGCAAUAUUACGUCAG	-1.93 ± 0.11	-1.56 ± 0.12
CGAGAGCAAUAUUACGAUAC	-3.49 ± 0.42	-1.05 ± 0.26
GUGAAGCAAUAUUACGCUAU	-1.95 ± 0.15	-0.0655 ± 0.15
GUCUAGCAAUAUUACGAGAU	-3.31 ± 0.26	-2.32 ± 0.22
CUUGAGCAAUAUUACGCAGC	-2.02 ± 0.3	-0.712 ± 0.28
GGGCAGCAAUAUUACGGACG	-1.01 ± 0.056	0.591 ± 0.078
CGCAAGCAAUAUUACGCCAG	-1.01 ± 0.094	-0.582 ± 0.13
CCACAGCAAUAUUACGGGAG	-2.29 ± 0.14	-2.97 ± 0.19
UACCAGCAAUAUUACGAGAU	-3.69 ± 0.21	-3.25 ± 0.13
UUCUAGCAAUAUUACGGUCC	–	-2.46 ± 0.39
CCUCAGCAAUAUUACGUUCU	-4.28 ± 0.34	-3.23 ± 0.36
AUACAGCAAUAUUACGAUCC	-0.368 ± 0.12	-1.59 ± 0.15
AAGCAGCAAUAUUACGCAGA	-2.16 ± 0.11	-0.306 ± 0.091

Sequence	self-splicing fitness (ln) (30 °C)	self-splicing fitness (ln) (37 °C)
CGAGAGCAAUAUUACGGCCU	-2.61 ± 0.39	-2.63 ± 0.44
UCUCAGCAAUAUUACGAAAC	-2.16 ± 0.26	-2.29 ± 0.5
CGACAGCAAUAUUACGCUUA	-2.2 ± 0.14	-1.78 ± 0.12
UGGCAGCAAUAUUACGGAAC	-2.89 ± 0.36	-1.72 ± 0.21
AACCAGCAAUAUUACGGAUU	-2.07 ± 0.071	-1.08 ± 0.087
UAAAAGCAAUAUUACGAACA	-0.822 ± 0.072	0.504 ± 0.11
UCCUAGCAAUAUUACGGGCA	-0.22 ± 0.085	0.2 ± 0.097
AUCCAGCAAUAUUACGUCGU	-0.689 ± 0.062	-0.625 ± 0.077
CCUAAGCAAUAUUACGGCAG	-2.09 ± 0.084	-1.21 ± 0.098
ACUUAGCAAUAUUACGGGAG	-1.75 ± 0.072	-1.3 ± 0.085
UCCGAGCAAUAUUACGUAUG	-2.36 ± 0.17	-2.67 ± 0.24
AGAAAGCAAUAUUACGAGCU	-0.0239 ± 0.055	0.0125 ± 0.072
UAUGAGCAAUAUUACGGUUU	-3.7 ± 0.2	-2.43 ± 0.21
UUUGAGCAAUAUUACGGGGG	-1.96 ± 0.38	–
GGCGAGCAAUAUUACGACUA	-0.848 ± 0.12	-0.00409 ± 0.11
CACGAGCAAUAUUACGAGGU	-4.07 ± 0.28	-3.23 ± 0.28
GCACAGCAAUAUUACGUGCG	-2.65 ± 0.066	-1.12 ± 0.066
UAACAGCAAUAUUACGUGCC	-3.5 ± 0.22	-1.9 ± 0.15
GCGGAGCAAUAUUACGAGUC	–	-1.09 ± 0.45
UCGUAGCAAUAUUACGCCAA	-3.89 ± 0.3	-1.4 ± 0.17
AGAGAGCAAUAUUACGGAAG	-3.74 ± 0.33	-1.32 ± 0.22
UCACAGCAAUAUUACGUGGC	-3.08 ± 0.18	-2.83 ± 0.26
CGUGAGCAAUAUUACGCGAG	-1.12 ± 0.21	–
AGUUAGCAAUAUUACGGUUA	-1.54 ± 0.12	-0.607 ± 0.087
CGUCAGCAAUAUUACGAUCU	-1.09 ± 0.086	-0.0587 ± 0.11
AUCCAGCAAUAUUACGGCUC	-1.39 ± 0.078	-0.482 ± 0.099
AAUCAGCAAUAUUACGGCGC	-0.736 ± 0.096	0.0282 ± 0.11

Sequence	self-splicing fitness (ln) (30 °C)	self-splicing fitness (ln) (37 °C)
CUCCAGCAAUAUUACGAGUC	-3.83 ± 0.34	-2.15 ± 0.26
UCAAAGCAAUAUUACGCCUC	–	-1.91 ± 0.37
UACCAGCAAUAUUACGUUUU	-1.51 ± 0.094	-2.37 ± 0.15
UGAGAGCAAUAUUACGGGUU	-2.45 ± 0.24	-2.85 ± 0.31
UUGAAGCAAUAUUACGCUUA	-1.17 ± 0.083	-0.467 ± 0.093
AGUCAGCAAUAUUACGUCGG	-0.874 ± 0.086	-1.23 ± 0.11
CCUUAGCAAUAUUACGUAAU	-3.24 ± 0.29	-1.81 ± 0.16
GUUGAGCAAUAUUACGCUCU	-2.49 ± 0.47	–
GAAUAGCAAUAUUACGGUAG	-2.88 ± 0.12	-2.22 ± 0.16
CUUUAGCAAUAUUACGCUUU	-2.36 ± 0.36	-1.45 ± 0.41
GACAAGCAAUAUUACGUACC	-1.71 ± 0.13	-1.11 ± 0.12
CAUGAGCAAUAUUACGGCCU	-2.67 ± 0.19	-2.19 ± 0.25
GGACAGCAAUAUUACGGCUU	-0.36 ± 0.11	0.07 ± 0.11
AGUGAGCAAUAUUACGUAGU	-4.14 ± 0.26	-2.82 ± 0.26
CAUCAGCAAUAUUACGGUUG	-2.29 ± 0.072	-0.804 ± 0.079
AUAUAGCAAUAUUACGUAUC	-3.41 ± 0.3	-1.92 ± 0.35
ACGGAGCAAUAUUACGUGCU	-2.34 ± 0.19	–
UUAGAGCAAUAUUACGGAAU	-3.79 ± 0.29	-2.81 ± 0.25
AGCAAGCAAUAUUACGGCGU	-0.229 ± 0.078	0.0744 ± 0.1
CCGUAGCAAUAUUACGUGUU	-3.35 ± 0.2	-2.47 ± 0.18
UGUAAGCAAUAUUACGCUCA	-0.207 ± 0.11	0.681 ± 0.18
CCGAAGCAAUAUUACGAUCG	-0.383 ± 0.065	-0.283 ± 0.076
GCGCAGCAAUAUUACGUUCG	-1.7 ± 0.068	-1.47 ± 0.096
CCUAAGCAAUAUUACGAUGA	-3.09 ± 0.21	-1.84 ± 0.18
UUCAAGCAAUAUUACGAGGA	-2.22 ± 0.14	-1.43 ± 0.13
